Values quoted from earlier work, collected in publication PMC4652184.

Target: Slit2 (Homo sapiens) (UniProt O94813)
Sequence (O94813 31-1529): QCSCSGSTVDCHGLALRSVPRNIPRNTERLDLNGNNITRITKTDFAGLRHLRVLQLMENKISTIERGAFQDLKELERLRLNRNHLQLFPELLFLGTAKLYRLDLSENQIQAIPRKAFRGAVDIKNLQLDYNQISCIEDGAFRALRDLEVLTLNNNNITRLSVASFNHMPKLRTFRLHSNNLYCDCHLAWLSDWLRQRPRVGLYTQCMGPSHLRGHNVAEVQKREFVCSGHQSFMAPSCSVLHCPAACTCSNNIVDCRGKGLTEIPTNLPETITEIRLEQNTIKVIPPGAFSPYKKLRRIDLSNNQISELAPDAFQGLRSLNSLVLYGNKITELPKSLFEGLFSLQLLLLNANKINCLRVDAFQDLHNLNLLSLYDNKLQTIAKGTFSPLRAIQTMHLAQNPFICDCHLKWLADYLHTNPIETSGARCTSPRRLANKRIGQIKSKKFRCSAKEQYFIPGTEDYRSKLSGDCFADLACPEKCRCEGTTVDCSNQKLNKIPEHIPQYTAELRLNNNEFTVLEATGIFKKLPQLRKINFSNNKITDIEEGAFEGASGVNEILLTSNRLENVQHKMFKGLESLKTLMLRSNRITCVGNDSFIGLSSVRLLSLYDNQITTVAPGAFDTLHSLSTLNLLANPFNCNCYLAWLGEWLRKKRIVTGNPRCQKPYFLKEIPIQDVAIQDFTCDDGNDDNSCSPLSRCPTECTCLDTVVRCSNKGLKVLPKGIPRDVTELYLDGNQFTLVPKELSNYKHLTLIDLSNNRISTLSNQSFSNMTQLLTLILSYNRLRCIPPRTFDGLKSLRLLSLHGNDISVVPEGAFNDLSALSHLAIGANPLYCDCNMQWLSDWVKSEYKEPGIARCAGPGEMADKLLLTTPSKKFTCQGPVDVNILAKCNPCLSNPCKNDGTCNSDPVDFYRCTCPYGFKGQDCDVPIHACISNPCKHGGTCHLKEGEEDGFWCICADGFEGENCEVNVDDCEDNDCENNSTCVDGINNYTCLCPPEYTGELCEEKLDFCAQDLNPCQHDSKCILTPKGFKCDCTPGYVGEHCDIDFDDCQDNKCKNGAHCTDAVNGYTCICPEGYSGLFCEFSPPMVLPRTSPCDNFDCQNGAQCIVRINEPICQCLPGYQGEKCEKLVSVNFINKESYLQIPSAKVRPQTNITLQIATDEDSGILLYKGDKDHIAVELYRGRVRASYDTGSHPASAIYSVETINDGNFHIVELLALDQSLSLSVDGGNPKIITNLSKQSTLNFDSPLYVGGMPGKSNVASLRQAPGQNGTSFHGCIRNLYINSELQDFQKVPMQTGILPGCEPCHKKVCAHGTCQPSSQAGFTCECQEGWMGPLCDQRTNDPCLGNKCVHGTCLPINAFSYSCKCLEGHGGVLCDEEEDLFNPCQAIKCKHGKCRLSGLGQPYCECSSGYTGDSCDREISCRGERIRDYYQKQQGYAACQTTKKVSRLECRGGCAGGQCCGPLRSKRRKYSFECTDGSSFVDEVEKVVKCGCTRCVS

Chain of Robo1 (Q9Y6N7 26-897): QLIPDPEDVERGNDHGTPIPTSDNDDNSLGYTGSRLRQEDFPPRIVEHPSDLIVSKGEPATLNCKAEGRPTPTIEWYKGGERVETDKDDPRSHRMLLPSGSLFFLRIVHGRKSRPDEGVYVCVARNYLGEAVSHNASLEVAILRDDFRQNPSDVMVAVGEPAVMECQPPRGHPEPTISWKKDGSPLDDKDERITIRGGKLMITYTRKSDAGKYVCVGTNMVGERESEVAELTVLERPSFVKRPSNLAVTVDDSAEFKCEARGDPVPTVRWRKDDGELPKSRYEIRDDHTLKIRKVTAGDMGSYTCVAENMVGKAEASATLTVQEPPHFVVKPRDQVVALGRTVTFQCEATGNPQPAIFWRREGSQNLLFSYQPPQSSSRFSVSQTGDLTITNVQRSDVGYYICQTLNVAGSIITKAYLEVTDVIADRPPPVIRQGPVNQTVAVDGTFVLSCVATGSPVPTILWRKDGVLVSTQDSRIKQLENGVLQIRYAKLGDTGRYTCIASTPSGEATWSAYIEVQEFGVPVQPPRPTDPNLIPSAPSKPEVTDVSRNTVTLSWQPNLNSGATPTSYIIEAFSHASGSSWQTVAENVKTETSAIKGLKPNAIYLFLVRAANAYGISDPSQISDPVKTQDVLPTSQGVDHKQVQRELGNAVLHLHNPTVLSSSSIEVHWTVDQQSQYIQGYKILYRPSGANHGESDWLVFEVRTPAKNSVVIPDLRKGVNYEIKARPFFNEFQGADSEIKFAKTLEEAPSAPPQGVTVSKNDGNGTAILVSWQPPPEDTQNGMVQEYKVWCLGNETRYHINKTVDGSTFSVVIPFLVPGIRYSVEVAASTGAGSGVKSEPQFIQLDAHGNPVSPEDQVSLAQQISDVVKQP

- Kd: 4.5 nM
Substance: Robo1 (from UniProt Q9Y6N7)
